{
  "source": "patent US20190016771A1",
  "about": "(Hoffmann-La Roche, published 2019)",
  "binders": {"B1": {"name": "FAP(28H1)-targeted human CMP trimeric OX40L-containing antigen binding molecule (other)", "chain": "EVQLLESGGGLVQPGGSLRLSCAASGFTFSSHAMSWVRQAPGKGLEWVSAIWASGEQYYADSVKGRFTISRDNSKNTLYLQMNSLRAEDTAVYYCAKGWLGNFDYWGQGTLVTVSSASTKGPSVFPLAPSSKSTSGGTAALGCLVKDYFPEPVTVSWNSGALTSGVHTFPAVLQSSGLYSLSSVVTVPSSSLGTQTYICNVNHKPSNTKVDKKVEPKSCDGGGGSGGGGSEEDPCACESLVKFQAKVEGLLQALTRKLEAVSKRLAILENTVVSGGGGSGGGGSGGGGSGGGGSQVSHRYPRIQSIKVQFTEYKKEKGFILTSQKEDEIMKVQDNSVIINCDGFYLISLKGYFSQEVDISLHYQKDEEPLFQLKKVRSVNSLMVASLTYKDKVYLNVTTDNTSLDDFHVNGGELILIHQNPGEFCVL", "light": "EIVLTQSPGTLSLSPGERATLSCRASQSVSRSYLAWYQQKPGQAPRLLIIGASTRATGIPDRFSGSGSGTDFTLTISRLEPEDFAVYYCQQGQVIPPTFGQGTKVEIKRTVAAPSVFIFPPSDEQLKSGTASVVCLLNNFYPREAKVQWKVDNALQSGNSQESVTEQDSKDSTYSLSSTLTLSKADYEKHKVYACEVTHQGLSSPVTKSFNRGEC", "notes": "also called trimeric FAP-huCMP-OX40L"}},
  "key": {"[1]": {"target": "T1, human OX40 (CD134) on the cell surface (human, UniProt P43489 29-277)", "T1 construct": "whole, on cells; also called hOx40", "T1 sequence (looked up)": "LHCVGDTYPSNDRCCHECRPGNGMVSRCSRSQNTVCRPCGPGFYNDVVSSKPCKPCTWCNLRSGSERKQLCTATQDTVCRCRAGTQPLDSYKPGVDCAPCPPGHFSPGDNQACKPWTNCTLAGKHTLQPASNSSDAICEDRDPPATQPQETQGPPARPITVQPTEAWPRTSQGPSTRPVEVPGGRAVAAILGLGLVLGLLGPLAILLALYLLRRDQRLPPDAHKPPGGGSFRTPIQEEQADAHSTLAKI", "assay": "flow cytometry on activated human CD8+ T cells (OX40 positive); activated OX40 positive CD8+ T cells", "description": "(§1) PBMCs were used directly after isolation (binding on resting human PBMCs) or they were stimulated to receive a strong human Ox40 expression on the cell surface of T cells (binding on activated human PBMCs). Therefore naïve PBMCs were cultured for three days in T cell medium supplied with 200 U/mL Proleukin (Novartis) and […] PHA-L (Sigma-Aldrich, L2769-10) in 6-well tissue culture plate at 37° C. and 5% CO₂.\n(§2) Cells were stained for 120 minutes at 4° C. in the dark in 50 μL/well 4° C. cold FACS buffer containing titrated anti-Ox40 antibody constructs. After three times washing with excess FACS buffer, cells were stained for 1 h at 4° C. in the dark in 25 μL/well 4° C. cold FACS buffer containing a mixture of fluorescently labeled anti-human CD4 (clone OKT4, mouse IgG1 k, BioLegend, Cat.-No. 317428), anti-human CD8 (clone RPa-T8, mouse IgG1k, BD Pharmingen, Cat.-No. 555368) and Fluorescein isothiocyanate (FITC)-conjugated AffiniPure anti-human IgG F(ab′)2-fragment-specific goat IgG F(ab′)₂ fragment (Jackson ImmunoResearch, Cat.-No. 109-096-097). Plates were finally resuspended in 90 μL/well FACS-buffer containing 0.2 μg/mL DAPI (Santa Cruz Biotec, Cat. No. Sc-3598) and acquired the same day using 5-laser LSR-Fortessa (BD Bioscience with DIVA software)."}, "[2]": {"target": "T2, human fibroblast activation protein (FAP) on the cell surface (human, UniProt Q12884 1-760)", "T2 construct": "also called huFAP; NIH/3T3-huFAP clone 39 cells", "T2 sequence": "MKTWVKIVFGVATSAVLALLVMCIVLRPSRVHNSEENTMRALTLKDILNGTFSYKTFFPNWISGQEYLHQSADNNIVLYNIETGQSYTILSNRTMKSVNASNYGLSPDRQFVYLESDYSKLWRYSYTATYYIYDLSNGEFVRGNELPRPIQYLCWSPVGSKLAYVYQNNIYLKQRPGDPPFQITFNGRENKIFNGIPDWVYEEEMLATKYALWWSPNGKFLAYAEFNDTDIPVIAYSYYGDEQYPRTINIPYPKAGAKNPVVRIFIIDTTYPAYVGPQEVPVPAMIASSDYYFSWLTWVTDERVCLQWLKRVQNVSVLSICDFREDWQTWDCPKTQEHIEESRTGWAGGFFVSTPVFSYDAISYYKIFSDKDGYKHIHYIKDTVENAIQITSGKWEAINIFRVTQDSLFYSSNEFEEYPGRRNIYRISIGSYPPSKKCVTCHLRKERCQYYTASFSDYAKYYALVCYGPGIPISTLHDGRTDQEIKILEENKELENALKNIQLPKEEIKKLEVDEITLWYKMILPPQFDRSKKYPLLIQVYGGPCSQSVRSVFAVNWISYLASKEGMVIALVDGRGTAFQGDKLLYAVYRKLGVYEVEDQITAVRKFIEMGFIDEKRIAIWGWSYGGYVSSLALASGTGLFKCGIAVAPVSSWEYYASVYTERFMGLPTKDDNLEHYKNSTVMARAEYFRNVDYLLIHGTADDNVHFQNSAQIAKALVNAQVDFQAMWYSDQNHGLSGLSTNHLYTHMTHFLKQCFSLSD", "assay": "flow cytometry on WM-266-4 cells, FITC anti-human IgG F(ab')2 detection", "description": "Cells were stained for 120 minutes at 4° C. in the dark in 50 μL/well 4° C. cold FACS buffer (DPBS (Gibco by Life Technologies, Cat. No. 14190 326) w/ BSA (0.1% v/w, Sigma-Aldrich, Cat. No. A9418) containing titrated huCMP trimeric OX40 ligand-containing antigen binding molecules. After three times washing with excess FACS buffer, cells were stained for 60 minutes at 4° C. in the dark in 25 μL/well 4° C. cold FACS buffer containing Fluorescein isothiocyanate (FITC)-conjugated AffiniPure anti-human IgG F(ab′)₂-fragment-specific goat IgG F(ab′)₂ fragment (Jackson ImmunoResearch, Cat.-No. 109-096-097).\nPlates were finally resuspended in 90 μL/well FACS-buffer containing 0.2 μg/mL DAPI (Santa Cruz Biotec, Cat. No. Sc-3598) and acquired the same day using 5-laser LSR-Fortessa (BD Bioscience with DIVA software)."}, "[3]": {"target": "T1, human OX40 (CD134) on the cell surface", "assay": "flow cytometry on activated human CD4+ T cells (OX40 positive); activated OX40 positive CD4+ T cells", "description": "as §1, §2"}},
  "data": [
    {"binder": "B1", "values": [
      {"measurement": "EC50", "setting": "[1]", "value": 3, "unit": "nM"},
      {"measurement": "EC50", "setting": "[2]", "value": 17.3, "unit": "nM"},
      {"measurement": "EC50", "setting": "[3]", "value": 10.2, "unit": "nM"}
    ]}
  ]
}
